What is called Kd is the free concentration of one partner at which half of the binding sites on the other are occupied at equilibrium, for simple one-to-one binding.

The target in data set [1] is T1, Tfam HMG-box A (Homo sapiens, UniProt Q00059 43-122).
T1 sequence: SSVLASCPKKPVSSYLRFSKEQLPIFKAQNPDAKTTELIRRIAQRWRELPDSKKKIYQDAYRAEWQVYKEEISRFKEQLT
The experiment in a line: intrinsic Trp fluorescence quenching.

The target of data set [2] is T2, Tfam Y162A (Homo sapiens, UniProt Q00059 43-246, Y162A).
T2 sequence: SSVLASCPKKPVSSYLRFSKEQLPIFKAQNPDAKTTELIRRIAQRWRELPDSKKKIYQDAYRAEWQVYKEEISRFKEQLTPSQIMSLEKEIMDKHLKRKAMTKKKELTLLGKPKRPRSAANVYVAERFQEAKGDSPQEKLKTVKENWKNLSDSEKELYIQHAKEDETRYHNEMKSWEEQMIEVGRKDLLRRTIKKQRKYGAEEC
The experiment in a line: intrinsic Trp fluorescence quenching.

The target of data set [3] is T3, Tfam L6 (Homo sapiens, UniProt Q00059 43-246, K136A;H137A;K139A;R140A;K146A;K147A).
T3 sequence: T2 sequence with K94A, H95A, K97A, R98A, K104A, K105A, A120Y
The experiment in a line: intrinsic Trp fluorescence quenching.

The target in data set [4] is T4, Tfam WT (mature) (Homo sapiens, UniProt Q00059 43-246).
T4 sequence: T2 sequence with A120Y
As to the kind of experiment: intrinsic Trp fluorescence quenching.

Data set [5] has as its target T5, Tfam HMG-box B (Homo sapiens, UniProt Q00059 153-222).
T5 sequence: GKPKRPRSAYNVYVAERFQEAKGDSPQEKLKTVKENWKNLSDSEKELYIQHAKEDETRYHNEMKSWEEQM
The experiment in a line: intrinsic Trp fluorescence quenching.

Data set [6] addresses T6, Tfam T77A (Homo sapiens, UniProt Q00059 43-246, T77A).
T6 sequence: T2 sequence with T35A, A120Y
As to the kind of experiment: intrinsic Trp fluorescence quenching.

The target in data set [7] is T2, Tfam Y162A. As to the kind of experiment: FRET bending.
The target in data set [8] is T3, Tfam L6. The experiment in a line: FRET bending.
Data set [9] has as its target T4, Tfam WT (mature). The experiment in a line: FRET bending.
Data set [10] deals with T6, Tfam T77A. The experiment in a line: FRET bending.

Substitutions are numbered along the chain they refer to.

B1: LSP 28 bp (dsDNA)
DNA 1: TGTTAGTTGGGGGGTGACTGTTAAAAGT
DNA 2: ACTTTTAACAGTCACCCCCCAACTAACA
Take B1: the equilibrium dissociation constant (Kd) in [1] was 6.5 ± 1.2 nM; in data set [2], 12.3 ± 1.8 nM; in data set [3] it was 10.1 ± 1.2 nM; in data set [4], 6 ± 0.9 nM; in data set [5], 411 ± 46 nM; in [6] it was 7.6 ± 1.1 nM.

B2: LSP 28 bp Cy3/Cy5 (dsDNA)
DNA 1: TGTTAGTTGGGGGGTGACTGTTAAAAGT
DNA 2: ACTTTTAACAGTCACCCCCCAACTAACA
For B2, the binding signal in data set [7] came to 29.4 ± 0.6 % FRET efficiency; in [8] it was 26.1 ± 0.6 % FRET efficiency; in data set [9], 36.5 ± 0.8 % FRET efficiency; in data set [10] it was 31.4 ± 0.2 % FRET efficiency.

The values are drawn from PMC3210390.
